Patent publication US20070027089A1 (POSCO, published 2007)
Where no end group is shown, it is not given here. The star is where a group is joined. Biotin = O=C1N[C@H]2[C@H](CS[C@H]2CCCCC(=O)*)N1; Dnp = O=[N+]([O-])c1ccc(*)c([N+](=O)[O-])c1; Mca = COc1ccc2c(CC(=O)*)cc(=O)oc2c1

Experiments:
[1] = target: T1, f-Sub M (7-methoxycoumarin-4-acetyl-SEVNLDAEFRK(Dnp)-RR-NH2); assay: cell-based or functional assay
T1 peptide: Mca-SEVNLDAEFRK(Dnp)RR-NH2

[2] = target: T2, biotin-labeled Substrate W; assay: plate assay: complementary peptide immobilised, biotinylated substrate, streptavidin-HRP
T2 construct: also called bio-Sub W; N-terminally biotinylated Substrate W
T2 peptide: Biotin-SEVKMDAEFR

[3] = target: T3, biotin-labeled Substrate M; assay: plate assay: HC peptide chemically coupled to plate, bio-Sub M, Str-HRP, A450 (Table 1)
T3 construct: also called bio-Sub M; N-terminally biotinylated Substrate M
T3 peptide: Biotin-SEVNLDAEFR
Method: (§1) Reacti-BindTM maleic anhydride-activated polystyrene plate (Pierce, Ill., USA) was coated with 50 μl of HC peptide (200 μM in distilled water) by chemical coupling for 3 h at room temperature (RT) and washed three times with phosphate buffered saline (PBS) containing 0.05% tween 20 (PBST). The plate was blocked with blocking buffer (0.5% gelatin in PBS) for 1 h at RT. After discarding blocking buffer, biotinylated BACE1 substrates (200 μM) in blocking buffer was applied on the plate and incubated for 2.5 h at RT. Each well was washed three times with PBST. The bound biotinylated BACE1 substrates were detected by incubation with streptavidin-horseradish peroxidase (Str-HRP, 125 mU/ml in blocking buffer) for 2 h at RT. Color reaction was carried out with 50 μl of 3,3′,5,5′-Tetramethylbenzidine Liquid Substrate (Sigma-Aldrich, Mo., USA). After stopping the reaction by addition of an equal volume of 1 N HCl, absorbance at 450 nm was read in an automated ELISA reader (EL 312e, Bio-Tek Instruments, VT, USA). All assays were carried out in duplicate.

[4] = target: T3, biotin-labeled Substrate M; assay: plate assay: HC peptide chemically coupled to plate, bio-Sub M, Str-HRP, A450 (Table 2)
Method: as §1

[5] = target: T3, biotin-labeled Substrate M; assay: plate assay: complementary peptide immobilised, biotinylated substrate, streptavidin-HRP
[6] = target: T4, recombinant human β-secretase (rhBACE1) (human, UniProt P56817 22-457, limits assumed); assay: ELISA, c-Sub M immobilised
T4 construct: Bought

[7] = target: T2, biotin-labeled Substrate W; assay: plate assay: HC peptide chemically coupled to plate, bio-Sub W, Str-HRP (FIG. 27)
Method: as §1

[8] = target: T5, Substrate M (decamer containing the β-secretase cleavage site of Swedish mutant APP), non-labelled; assay: cell-based or functional assay
T5 peptide: SEVNLDAEFR

[9] = target: T6, Sub-ST6Gal1 (non-labelled); assay: cell-based or functional assay
T6 peptide: DYEALTLQAKEFQMPKSQE

T4 sequence (P56817 22-457 limits assumed): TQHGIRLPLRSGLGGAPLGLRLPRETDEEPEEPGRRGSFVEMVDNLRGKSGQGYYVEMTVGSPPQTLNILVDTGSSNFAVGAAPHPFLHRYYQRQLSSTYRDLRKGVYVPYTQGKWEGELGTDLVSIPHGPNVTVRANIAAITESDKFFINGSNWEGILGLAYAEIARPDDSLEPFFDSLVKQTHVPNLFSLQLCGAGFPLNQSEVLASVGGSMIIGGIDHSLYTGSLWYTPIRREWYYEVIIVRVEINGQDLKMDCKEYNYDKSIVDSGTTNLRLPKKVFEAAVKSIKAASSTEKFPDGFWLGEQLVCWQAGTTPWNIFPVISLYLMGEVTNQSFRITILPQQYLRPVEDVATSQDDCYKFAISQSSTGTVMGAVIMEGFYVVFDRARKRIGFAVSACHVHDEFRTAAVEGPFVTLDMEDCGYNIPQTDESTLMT

B1: c-Sub M ΔC5 (SEFCI) (peptide)
peptide: SEFCI-NH2
percent inhibition of f-Sub M cleavage by rhBACE1 (peptide 1 mM, f-Sub M 10 µM) [1]: > 90%

B2: c-Sub W (SEFCIHLHFR) (peptide)
peptide: SEFCIHLHFR-NH2
notes: Hydropathic complementary peptide designed from the antisense strand of Sub W, read 5'->3'
binding result [2]: binds
binding result [3]: binds

B3: c-Sub M ΔC1 (SEFCIQIHF) (peptide)
peptide: SEFCIQIHF-NH2
notes: also called c-SubM CΔ1
percent inhibition of f-Sub M cleavage by rhBACE1 (peptide 1 mM, f-Sub M 10 µM) [1]: 90%
binding result [4]: binds

B4: c-Sub M (SEFCIQIHFR) (peptide)
peptide: SEFCIQIHFR-NH2
notes: Hydropathic complementary peptide designed from the antisense strand of Sub M, read 5'->3'; also called HC peptide c-Sub M
binding result [5]: binds
binding result [6]: no binding
fold binding to Sub W relative to c-Sub W [7]: 4 fold
percent inhibition of f-Sub M cleavage by rhBACE1 (FRET), peptide 100 fold over substrate [1]: ~50%
percent inhibition of f-Sub M cleavage by rhBACE1 (peptide 1 mM, f-Sub M 10 µM) [1]: 45%

B5: Sub W-c (RLHFYLRLKA) (peptide)
peptide: RLHFYLRLKA-NH2
notes: Complementary peptide of Sub W read 3'->5'
binding result [3]: binds

B6: c-Sub M ΔN3C1 (CIQIHF) (peptide)
peptide: CIQIHF-NH2
notes: also called c-Sub MΔC1N3; c-Sub ΔN3C1
binding result [7]: binds
inhibitory activity relative to c-Sub M ΔN1C1 (FRET, f-Sub M 10 µM) [1]: ~0.1 fold

B7: c-Sub M ΔC4 (SEFCIQ) (peptide)
peptide: SEFCIQ-NH2
percent inhibition of f-Sub M cleavage by rhBACE1 (peptide 1 mM, f-Sub M 10 µM) [1]: > 90%

B8: c-Sub M ΔC3 (SEFCIQI) (peptide)
peptide: SEFCIQI-NH2
percent inhibition of f-Sub M cleavage by rhBACE1 (peptide 1 mM, f-Sub M 10 µM) [1]: > 90%

B9: c-Sub M ΔC2 (SEFCIQIH) (peptide)
peptide: SEFCIQIH-NH2
percent inhibition of f-Sub M cleavage by rhBACE1 (peptide 1 mM, f-Sub M 10 µM) [1]: 44%

B10: c-Sub M ΔN2C1 (FCIQIHF) (peptide)
peptide: FCIQIHF-NH2
binding result [7]: binds
percent of substrate cleavage by β-secretase blocked (HPLC), 25-fold inhibitor [8]: ~60%
percent of substrate cleavage by β-secretase blocked (HPLC), 25-fold inhibitor [9]: 25%

B11: c-Sub M ΔN1C1 (EFCIQIHF) (peptide)
peptide: EFCIQIHF-NH2
notes: also called one amino acid deletion from N-terminal of c-Sub M ΔC1
fold binding to Sub W relative to c-Sub W [7]: 2.5 fold
percent inhibition of substrate cleavage by rhBACE1 (HPLC), inhibitor/substrate ratio 20 [8]: 100%
percent inhibition of substrate cleavage by rhBACE1 (HPLC), inhibitor/substrate ratio up to 10 [8]: 60%
percent inhibition of substrate cleavage by rhBACE1 (HPLC), inhibitor/substrate ratio 20 [9]: 40%
percent inhibition of substrate cleavage by rhBACE1 (HPLC), inhibitor/substrate ratio up to 10 [9]: ~10%
IC50 of inhibition of f-Sub M (10 µM) cleavage by rhBACE1 (FRET) [1]: 15 µM
